From article PMC9716232 come the findings set out here.

This assay addresses complement component 3b (C3b) (human) (UniProt P01024). In words: SPR; equilibrium: each FH sample injected at 0.0156-2 uM, in duplicate, over 1500 RUs of C3b amine-coupled on a Biacore CM5 sensor chip; fit to a 1:1 equilibrium model (Biacore software).
As usually defined, the Kd is the concentration at which binding is half-saturated. Read a low Kd as a tighter complex. The substance “FH variant Arg53His (from UniProt P08603 19-1231) (natural protein)” came in with a Kd of 3.16 µM.
Consider “FH variant Arg175Pro (from UniProt P08603 19-1231) (natural protein)”, for which the dissociation constant (Kd) stood at 6.39 µM.
The substance “FH variant Arg567Gly (from UniProt P08603 19-1231) (natural protein)” gave a Kd of 4.21 µM.
Regarding “FH variant Arg1210Cys (from UniProt P08603 19-1231) (natural protein)”, the Kd stood at 1.95 µM.
Then “control factor H (FH) (from UniProt P08603 19-1231) (natural protein)”, with 1.7 µM.
